Measurements as given in US20240279318A1 (published 2024).
Changes are numbered by the printed parent chain. Where two headings read alike, the source gives them in different places. One block for each binder: values may come before it.

How the values were obtained:
[1] = target: AFP158/HLA-A*02:01 complex; assay: SPR
[2] = target: AFP158 loaded T2 cells (human;, UniProt P61769 21-119); assay: flow cytometry
[3] = target: AFP158/HLA-A*02:01 complex; assay: SPR; remark: listed apart in the source
[4] = target: A*02:06; assay: SPR
[5] = target: A*02:11; assay: SPR; low fitting confidence
[6] = target: A*02:03; assay: SPR; low fitting confidence
[7] = target: A*02:07; assay: SPR; low fitting confidence
[8] = target: A*02:02; assay: SPR; low fitting confidence
[9] = target: A*02:05; assay: SPR; low fitting confidence
[10] = target: A*02:11; assay: SPR

B2: AS148691 scFv-mIgG2aFc (Fc fusion)
chain: DIQMTQSPSSLSASVGDRVTITCRASQSVSSAVAWYQQKPGKAPKLLIYSASSLYSGVPSRFSGSRSGTDFTLTISSLQPEDFATYYCQQYYGAYLITFGQGTKVEIKGGGGSGGGGSGGGGSEVQLVESGGGLVQPGGSLRLSCAASGFNLYYSSIHWVRQAPGKGLEWVASIYSSYGSTSYADSVKGRFTISADTSKNTAYLQMNSLRAEDTAVYYCARVGPGYYGIDYWGQGTLVTVSS
EC50 [2]: 413 nM

B4: AS170036 VL1VH1 (scFv)
scFv: QSALTQPRSVSGSPGQSVTISCAGTSSDVGSENYVSWYQQHPGKAPKLMIYQVNKRASGVPDRFSGSKSGNTASLTISGLQAEDEADYYCASYRSSDHNIVFGGGTKLTVLGGGGSGGGGSGGGGSEVQLVESGGGLVQPGGSLRLSCAASGFTFSSYAMSWVRQAPGKGLEWVSTINSGTGSPYYADSVKGRFTISRDNSKNTLYLQMNSLRAEDTAVYYCAKNFFDGSWFLGPPAMDYWGQGTLVTVSSHHHHHH
Kd [3]: 710 nM
Kd [10]: 220 nM
Kd [4]: 5100 nM
Kd [6]: > 2800 nM
Kd [7]: > 18000 nM
Kd [8]: > 1500 nM

B8: AS167830 sdAb-mIgG2aFc (Fc fusion)
chain: QVKLVESGGGSVQAGGSLRLSCAASRSSEYMNRRFCMGWFRQASGKEREGVAVVYIGGGRTYYADSVKGRFTISQDNAKNTLYLQMNNLKPEDTAMYYCTADVDPYESSWSRDLGYWGQGTQVTVSS
EC50 [2]: 6.14 nM

B9: AS167821 sdAb-mIgG2aFc (Fc fusion)
chain: QVRLVESGGGSVQAGGSLRLSCAASGRTYSTYCMGWFRQAPGKEREGVATIYIGSGRTYYVDSVKGRFTISQDNAKNTLYLQMNNLKPEDTAMYYCTADVDPYESSWSRGLGYWGQGTQVTVSS
EC50 [2]: 3.63 nM

Continued, values first:

Kd [1]: 387 nM
EC50 [2]: 4.35 nM
B1: AS170036 scFv-mIgG2aFc (Fc fusion)
chain: QLVLTQPSSVSGTPGQTVTISCAGTSSDVGSENYVSWYRQLPGTAPKLLIYQVNKRASGIADRFSGSKSGNTASMTISGLQSADEADYYCASYRSSDHNIVFGGGTHLTVLGGGGSGGGGSGGGGSAVQLVESGGGLVQPGGSLRLSCTASGFTFSSYAMSWVRQAPGKGLEWVSTINSGTGSPYYADSVKGRFTISRDNAKNTLYLQLNSLKTEDTAMYYCAKNFFDGSWFLGPPAMDYWGKGTLVTISS

Kd [3]: 22 nM
Kd [4]: 330 nM
Kd [5]: > 250 nM
Kd [6]: > 31000 nM
Kd [7]: > 16000 nM
Kd [8]: > 530 nM
Kd [9]: > 1100 nM
B3: AS170036 VL1VH1-98I108A (scFv)
scFv: B4 scFv with H98I, G234A

Kd [3]: 46 nM
Kd [10]: 360 nM
Kd [4]: 570 nM
Kd [6]: > 43000 nM
Kd [7]: > 19000 nM
Kd [8]: > 910 nM
Kd [9]: > 910 nM
B5: AS170036 VL1VH1-57M98Q (scFv)
scFv: B4 scFv with H98Q, S183M

Kd [1]: 39.8 nM
EC50 [2]: 1.15 nM
B6: AS179732 scFv-mIgG2aFc (Fc fusion)
chain: NFMLTQPPSMSGSPRQSVTISCTGSSSNIGGNYVNWYQHLPGTAPKLLIYDNSNRASGVPERFSGSKSGSSASLTITGLQAEDEGDYYCASWDDSLSGAVFGGGTHLTVLGGGGSGGGGSGGGGSEVQLVESGGGLVQPGGSLRLSCAASGFTFLNYAMSWVRQAPGKGLEWVSSNSGAGSTYYSDSVKGRFTISRDYAKNVVYLQLNSLKTEDTGMYYCAKGTNVGSWSSLHYWGQGTQVTVSS

Kd [1]: 80.4 nM
EC50 [2]: 1.48 nM
B7: AS179723 scFv-mIgG2aFc (Fc fusion)
chain: B6 chain with N1Q, F2A, M3G, S27N, S53K, A56P, R62Q, F63I, G98A, A99V
